Assay [1] has as its target wild-type tau (Tau441) (human) (UniProt P10636). As to the kind of experiment: ELISA, Tau441 on plate; antibody at 333.3 ng/mL. In general terms: In an ELISA, binding on a coated surface is turned into a signal by an enzyme label.
The target is the same in assay [2]. As to the kind of experiment: ELISA, Tau441 on plate; antibody at 1000.0 ng/mL.
Assay [3] has the same target. As to the kind of experiment: ELISA, Tau441 on plate; antibody at 0.0 ng/mL [sic].
For assay [4] the target is unchanged. Description: ELISA, Tau441 on plate; antibody at 111.1 ng/mL.
Assay [5] shares this target. Description: ELISA, Tau441 on plate; antibody at 12.3 ng/mL.
The target is the same in assay [6]. Description: ELISA, Tau441 on plate; antibody at 4.1 ng/mL.
Assay [7] shares this target. Description: ELISA, Tau441 on plate; antibody at […].
For assay [8] the target is unchanged. As to the kind of experiment: ELISA, Tau441 on plate; antibody at 37.0 ng/mL.
Assay [9] addresses ePHF tau (tau in the form of paired helical filaments, immobilized on plate) (UniProt P10636). As to the kind of experiment: ePHF tau ELISA; […]; rep 1.
The target is the same in assay [10]. As to the kind of experiment: ePHF tau ELISA; 4.1 ng/mL; rep 1.
Assay [11] shares this target. Description: ePHF tau ELISA; 12.3 ng/mL; rep 2.
For assay [12] the target is unchanged. As to the kind of experiment: ePHF tau ELISA; 37.0 ng/mL; rep 1.
For assay [13] the target is unchanged. Description: ePHF tau ELISA; 4.1 ng/mL; rep 2.
Assay [14] has the same target. As to the kind of experiment: ePHF tau ELISA; 37.0 ng/mL; rep 2.
The target is the same in assay [15]. As to the kind of experiment: ePHF tau ELISA; 0.5 ng/mL; rep 2.
Assay [16] has the same target. As to the kind of experiment: ePHF tau ELISA; 333.3 ng/mL; rep 1.
The target is the same in assay [17]. Description: ePHF tau ELISA; 1000.0 ng/mL; rep 2.
For assay [18] the target is unchanged. As to the kind of experiment: ePHF tau ELISA; […]; rep 2.
The target is the same in assay [19]. Description: ePHF tau ELISA; 333.3 ng/mL; rep 2.
Assay [20] has the same target. Description: ePHF tau ELISA; 111.1 ng/mL; rep 1.
For assay [21] the target is unchanged. Description: ePHF tau ELISA; 0.5 ng/mL; rep 1.
Assay [22] has the same target. Description: ePHF tau ELISA; 111.1 ng/mL; rep 2.
For assay [23] the target is unchanged. Description: ePHF tau ELISA; 12.3 ng/mL; rep 1.
The target is the same in assay [24]. Description: ePHF tau ELISA; 1000.0 ng/mL; rep 1.

ePHF tau (tau in the form of paired helical filaments, immobilized on plate), sequence (P10636 other isoform, or with tags, fused parts or gaps limits assumed): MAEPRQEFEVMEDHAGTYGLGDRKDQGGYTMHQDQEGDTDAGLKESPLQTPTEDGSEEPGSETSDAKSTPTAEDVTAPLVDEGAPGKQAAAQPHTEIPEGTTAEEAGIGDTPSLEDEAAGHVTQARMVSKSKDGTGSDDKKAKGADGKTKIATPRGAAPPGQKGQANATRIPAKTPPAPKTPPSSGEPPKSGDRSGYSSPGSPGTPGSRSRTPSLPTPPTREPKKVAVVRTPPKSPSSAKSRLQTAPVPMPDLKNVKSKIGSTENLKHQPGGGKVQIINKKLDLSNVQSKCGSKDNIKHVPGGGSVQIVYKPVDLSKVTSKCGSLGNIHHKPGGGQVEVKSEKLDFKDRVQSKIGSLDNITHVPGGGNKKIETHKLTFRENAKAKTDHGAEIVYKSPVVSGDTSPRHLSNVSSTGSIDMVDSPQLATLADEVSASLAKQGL
wild-type tau (Tau441) (human), sequence (P10636 other isoform, or with tags, fused parts or gaps limits assumed): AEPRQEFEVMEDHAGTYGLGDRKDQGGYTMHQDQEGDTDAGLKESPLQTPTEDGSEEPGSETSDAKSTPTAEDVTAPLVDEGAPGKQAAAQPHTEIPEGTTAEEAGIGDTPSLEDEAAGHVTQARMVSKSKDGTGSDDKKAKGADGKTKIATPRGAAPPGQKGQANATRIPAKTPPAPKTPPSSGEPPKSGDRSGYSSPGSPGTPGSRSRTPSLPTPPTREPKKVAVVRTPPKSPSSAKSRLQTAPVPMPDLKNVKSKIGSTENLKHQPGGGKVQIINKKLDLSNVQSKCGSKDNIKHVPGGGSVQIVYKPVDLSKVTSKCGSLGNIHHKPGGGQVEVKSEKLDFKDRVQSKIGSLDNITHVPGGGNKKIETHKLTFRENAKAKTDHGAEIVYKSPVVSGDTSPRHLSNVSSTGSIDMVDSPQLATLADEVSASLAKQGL

As to “Tau-13 (anti-tau, 20-35; BioLegend cat #835201) (antibody)”, the OD450 in assay [1] turned out to be 3.2 OD450; in assay [2], 3.2 OD450; in assay [3], 0 OD450; in assay [4] it was 3.1 OD450; in [5] it was 1.2 OD450; in [6], 0.5 OD450. The OD450 turned out to be 0.2 OD450 in assay [7] and 2.3 OD450 in assay [8].

Turning to “2G9.F10 (BioLegend monoclonal murine anti-tau, 157-168; cat #824601) (antibody)”, the OD450 came out at 0.1 in assay [9]; 0.3 in assay [10]; 0.9 in assay [11]; 1.6 in assay [12]; 0.3 in assay [13]; 2 in [14]. Also, the OD450 was determined as 0 in assay [15]; 2.9 in [16]; 3.1 in [17]; 0.1 in assay [18]; 3 in assay [19]; 2.4 in assay [20]. Further, the OD450 was 0 in assay [21], 2.8 in assay [22], 0.7 in assay [23] and 3.1 in [24].

Turning to “PHF-6 (anti-tau phospho Th231; BioLegend cat #828901) (antibody)”, the OD450 was determined as 0 OD450 in [1]; 0.1 OD450 in assay [2]; 0 OD450 in assay [3]; 0 OD450 in assay [4]; 0 OD450 in [5]; 0 OD450 in assay [6]. Moreover, the OD450 came to 0.1 OD450 in [7] and 0 OD450 in [8].

Consider “Tau12 (anti-tau, 6-18; BioLegend cat #806501) (antibody)”, for which the OD450 was 3.3 OD450 in assay [1]; 3.3 OD450 in assay [2]; 0 OD450 in assay [3]; 3.3 OD450 in assay [4]; 2 OD450 in assay [5]; 0.9 OD450 in assay [6]. In addition, the results for the OD450 in [7] and in assay [8] were 0.4 OD450 and 3.1 OD450, respectively.

Regarding “Tau5 (BioLegend monoclonal murine anti-tau, 210-230; cat #806401) (antibody)”, the OD450 in assay [9] was determined as 0.4; in assay [10], 0.8; in assay [11], 2.1; in [12], 2.6; in [13] it was 0.9; in assay [14], 2.9. Further, the OD450 in assay [15] worked out at 0.1; in assay [16], 3.2; in assay [17], 3.2; in [18], 0.4; in [19], 3.2; in assay [20] it was 3.2. The OD450 in [21] was determined as 0.1; in assay [22], 3.2; in assay [23] it was 1.7; in [24] it was 3.2.

For “2G9.F10 (anti-tau, 157-168; BioLegend cat #824601) (antibody)”, the OD450 in assay [1] worked out at 1.6 OD450; in assay [2], 2.2 OD450; in [3], 0 OD450; in assay [4] it was 0.9 OD450; in assay [5], 0.2 OD450; in [6], 0.1 OD450. The OD450 stood at 0.1 OD450 in assay [7] and 0.5 OD450 in assay [8].

On to “Tau-13 (BioLegend monoclonal murine anti-tau, 20-35; cat #835201) (antibody)”, for which the OD450 stood at 0.6 in assay [9]; 1.4 in [10]; 3.1 in [11]; 3.2 in [12]; 1.8 in [13]; 3.2 in assay [14]. Moreover, the OD450 in [15] turned out to be 0.2; in assay [16], 3.2; in assay [17], 3.2; in assay [18] it was 0.7; in assay [19] it was 3.2; in assay [20], 3.2. Besides, the OD450 in assay [21] worked out at 0.2; in assay [22] it was 3.2; in [23], 2.8; in [24], 3.2.

Consider “Tau46 (BioLegend monoclonal murine anti-tau, 404-421; cat #806601) (antibody)”, for which the OD450 in assay [9] was determined as 0.1; in assay [10] it was 0.2; in assay [11], 0.4; in [12], 0.9; in [13], 0.1; in assay [14] it was 1. Further, the OD450 came out at 0 in [15]; 2.3 in assay [16]; 2.9 in assay [17]; 0 in [18]; 2.6 in assay [19]; 1.7 in [20]. For the same substance, the OD450 is 0 in assay [21], 2 in assay [22], 0.4 in [23] and 2.8 in assay [24].

Turning to “Tau12 (BioLegend monoclonal murine anti-tau, 6-18; cat #806501) (antibody)”, the OD450 is 1 in assay [9]; 2.2 in assay [10]; 3.2 in assay [11]; 3.2 in [12]; 2.4 in assay [13]; 3.2 in assay [14]. Besides, the OD450 turned out to be 0.4 in [15]; 3.2 in [16]; 3.1 in assay [17]; 1 in [18]; 3.1 in assay [19]; 3.2 in assay [20]. Also, the OD450 in assay [21] worked out at 0.4; in assay [22], 3.2; in [23], 3.2; in assay [24] it was 3.2.

As to “PHF-6 (BioLegend monoclonal murine anti-tau phospho Th231; cat #828901) (antibody)”, the OD450 turned out to be 0.2 in [9]; 0.4 in assay [10]; 1.3 in assay [11]; 1.9 in assay [12]; 0.5 in assay [13]; 2.3 in assay [14]. The OD450 in assay [15] worked out at 0; in assay [16] it was 3; in [17], 3.1; in [18] it was 0.2; in assay [19] it was 3.1; in assay [20] it was 2.7. Moreover, the OD450 in assay [21] turned out to be 0.1; in assay [22] it was 2.9; in [23] it was 1.1; in assay [24] it was 3.2.

Turning to “43D (BioLegend monoclonal murine anti-tau, 1-100; cat #816601) (antibody)”, the OD450 in [9] amounted to 0.7; in [10], 1.7; in assay [11], 3.1; in assay [12], 3.2; in assay [13] it was 1.9; in [14] it was 3.2. In addition, the OD450 worked out at 0.3 in assay [15]; 3.2 in [16]; 3.1 in [17]; 0.8 in assay [18]; 3.1 in assay [19]; 3.2 in assay [20]. Moreover, the OD450 in [21] was 0.3; in [22], 3.2; in assay [23] it was 3; in [24], 3.2.

In the case of “PHF-13 (BioLegend monoclonal murine anti-tau phospho Ser396; cat #829001) (antibody)”, the OD450 in assay [9] was found to be 0; in assay [10] it was 0.1; in assay [11], 0.1; in assay [12] it was 0.3; in assay [13], 0; in assay [14] it was 0.3. Moreover, the OD450 turned out to be 0 in assay [15]; 1.2 in assay [16]; 2 in [17]; 0 in [18]; 1.2 in [19]; 0.6 in [20]. Moreover, the OD450 turned out to be 0 in [21], 0.7 in [22], 0.1 in assay [23] and 1.9 in assay [24].

The values above are taken from patent US20220339270A1.
